Data on seven sequences can be found in the supplement of paper PMC5998384.

Data set [1] has as its system HeLa Kyoto. Put plainly: solubility in G1/S (NP-40 vs SDS abundance) (log2 ratio); higher = more soluble. Conditions: cell cycle stage: G1/S.
Data set [2] relates to HeLa Kyoto. Nature of the data set: melting temperature (median over replicates), in situ; higher = more thermally stable.
For data set [3], the system named is HeLa Kyoto. Nature of the data set: solubility change mitosis vs G1/S (difference of NP-40 vs SDS log2 ratios) (log2 ratio difference); higher = more soluble in mitosis.
The subject of data set [4] is HeLa Kyoto. Nature of the data set: thermal stability score vs G1/S (z-score of summed log2 fold changes over temperatures); higher = more thermally stable than in G1/S.
Where [5] appears, read: cell cycle stage: early G1 (4.5 h after nocodazole release).
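Throughout, for melting temperature (median over replicates), in situ: HeLa Kyoto cells synchronized by double thymidine or nocodazole block, proteins quantified by TMT10plex mass spectrometry, three independent biological replicates.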
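Throughout, for solubility change mitosis vs G1/S (difference of NP-40 vs SDS log2 ratios): synchronized HeLa Kyoto cells (double thymidine block for G1/S, nocodazole release for mitosis), protein amounts in NP-40 versus SDS lysates quantified by mass spectrometry, three biological replicates.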
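Throughout, for solubility in G1/S (NP-40 vs SDS abundance): HeLa Kyoto cells arrested at G1/S by double thymidine block, proteins quantified by TMT10plex mass spectrometry in mild NP-40 versus SDS extracts, three biological replicates.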
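Throughout, for thermal stability score vs G1/S (z-score of summed log2 fold changes over temperatures): synchronized HeLa Kyoto cells, proteins quantified by TMT10plex mass spectrometry, three biological replicates, mitosis taken 0.5 h after nocodazole release, G1/S directly after double thymidine block.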

For the sequence “MSASLVRATVRAVSKRKLQPTRAALTLTPSAVNKIKQLLKDKPEHVGVKVGVRTRGCNGLSYTLEYTKTKGDSDEEVIQDGVRVFIEKKAQLTLLGTEMDYVEDKLSSEFVFNNPNIKGTCGCGESFNI [ISCA1]”, in data set [1], the “solubility in G1/S (log2)” value was found to be 0.427. The melting temperature came to 52.3 °C in data set [2] (cell cycle stage: G1/S) and 51.9 °C in data set [2] (cell cycle stage: mitosis). Besides, the “solubility change mitosis (log2)” value in data set [3] was -0.0859. In addition, the values for the thermal stability score in data set [4] (setting [5]) and in data set [4] (cell cycle stage: mitosis) were -0.782 and -2.35, respectively.

With “MSATVVDAVNAAPLSGSKEMSLEEPKKMTREDWRKKKELEEQRKLGNAPAEVDEEGKDINPHIPQYISSVPWYIDPSKRPTLKHQRPQPEKQKQFSSSGEWYKRGVKENSIITKYRKGACENCGAMTHKKKDCFERPRRVGAKFTGTNIAPDEHVQPQLMFDYDGKRDRWNGYNPEEHMKIVEEYAKVDLAKRTLKAQKLQEELASGKLVEQANSPKHQWGEEEPNSQMEKDHNSEDEDEDKYADDIDMPGQNFDSKRRITVRNLRIREDIAKYLRNLDPNSAYYDPKTRAMRENPYANAGKNPDEVSYAGDNFVRYTGDTISMAQTQLFAWEAYDKGSEVHLQADPTKLELLYKSFKVKKEDFKEQQKESILEKYGGQEHLDAPPAELLLAQTEDYVEYSRHGTVIKGQERAVACSKYEEDVKIHNHTHIWGSYWKEGRWGYKCCHSFFKYSYCTGEAGKEIVNSEECIINEITGEESVKKPQTLMELHQEKLKEEKKKKKKKKKKHRKSSSDSDDEEKKHEKLKKALNAEEARLLHVKETMQIDERKRPYNSMYETREPTEEEMEAYRMKRQRPDDPMASFLGQ [SLU7]”, the “solubility in G1/S (log2)” value in data set [1] is -0.523. Further, the melting temperature in data set [2] (cell cycle stage: G1/S) stood at 46.9 °C; in data set [2] (cell cycle stage: mitosis), 49.9 °C. Also, the “solubility change mitosis (log2)” value in data set [3] came to 0.256. The thermal stability score stood at 0.191 in data set [4] (setting [5]) and 0.493 in data set [4] (cell cycle stage: mitosis).

Take “MSAYPKSYNPFDDDGEDEGARPAPWRDARDLPDGPDAPADRQQYLRQEVLRRAEATAASTSRSLALMYESEKVGVASSEELARQRGVLERTEKMVDKMDQDLKISQKHINSIKSVFGGLVNYFKSKPVETPPEQNGTLTSQPNNRLKEAISTSKEQEAKYQASHPNLRKLDDTDPVPRGAGSAMSTDAYPKNPHLRAYHQKIDSNLDELSMGLGRLKDIALGMQTEIEEQDDILDRLTTKVDKLDVNIKSTERKVRQL [SNAP29]”: the “solubility in G1/S (log2)” value in data set [1] worked out at 0.394. Besides, the melting temperature in data set [2] (cell cycle stage: G1/S) and in data set [2] (cell cycle stage: mitosis) was 52.7 °C in each case. Further, the “solubility change mitosis (log2)” value in data set [3] came to 0.314. Besides, the thermal stability score was -4.76 in data set [4] (setting [5]) and -2.04 in data set [4] (cell cycle stage: mitosis).

For “MSDEEARQSGGSSQAGVVTVSDVQELMRRKEEIEAQIKANYDVLESQKGIGMNEPLVDCEGYPRSDVDLYQVRTARHNIICLQNDHKAVMKQVEEALHQLHARDKEKQARDMAEAHKEAMSRKLGQSESQGPPRAFAKVNSISPGSPASIAGLQVDDEIVEFGSVNTQNFQSLHNIGSVVQHSEGKPLNVTVIRRGEKHQLRLVPTRWAGKGLLGCNIIPLQR [PSMD9]”, in data set [1], the “solubility in G1/S (log2)” value is 0.431. The melting temperature in data set [2] (cell cycle stage: G1/S) turned out to be 55.8 °C; in data set [2] (cell cycle stage: mitosis), 55.7 °C. Further, the “solubility change mitosis (log2)” value in data set [3] is 0.112. Further, the thermal stability score in data set [4] (setting [5]) was -2.77; in data set [4] (cell cycle stage: mitosis), -3.23.

“MSDFDEFERQLNENKQERDKENRHRKRSHSRSRSRDRKRRSRSRDRRNRDQRSASRDRRRRSKPLTRGAKEEHGGLIRSPRHEKKKKVRKYWDVPPPGFEHITPMQYKAMQAAGQIPATALLPTMTPDGLAVTPTPVPVVGSQMTRQARRLYVGNIPFGITEEAMMDFFNAQMRLGGLTQAPGNPVLAVQINQDKNFAFLEFRSVDETTQAMAFDGIIFQGQSLKIRRPHDYQPLPGMSENPSVYVPGVVSTVVPDSAHKLFIGGLPNYLNDDQVKELLTSFGPLKAFNLVKDSATGLSKGYAFCEYVDINVTDQAIAGLNGMQLGDKKLLVQRASVGAKNATLVSPPSTINQTPVTLQVPGLMSSQVQMGGHPTEVLCLMNMVLPEELLDDEEYEEIVEDVRDECSKYGLVKSIEIPRPVDGVEVPGCGKIFVEFTSVFDCQKAMQGLTGRKFANRVVVTKYCDPDSYHRRDFW [U2AF2]”: in data set [1], the “solubility in G1/S (log2)” value is -0.395. In addition, the melting temperature in data set [2] (cell cycle stage: G1/S) came out at 49.7 °C; in data set [2] (cell cycle stage: mitosis) it was 50.5 °C. The “solubility change mitosis (log2)” value in data set [3] was determined as 0.177. The thermal stability score in data set [4] (setting [5]) stood at 1.65; in data set [4] (cell cycle stage: mitosis), 5.33.

As to “MSDGDYDYLIKFLALGDSGVGKTSVLYQYTDGKFNSKFITTVGIDFREKRVVYRASGPDGATGRGQRIHLQLWDTAGQERFRSLTTAFFRDAMGFLLLFDLTNEQSFLNVRNWISQLQMHAYCENPDIVLCGNKSDLEDQRVVKEEEAIALAEKYGIPYFETSAANGTNISQAIEMLLDLIMKRMERCVDKSWIPEGVVRSNGHASTDQLSEEKEKGACGC [RAB27A]”, the “solubility in G1/S (log2)” value in data set [1] was 0.222. Moreover, the values for the melting temperature in data set [2] (cell cycle stage: G1/S) and in data set [2] (cell cycle stage: mitosis) were 52.7 °C and 53.9 °C, respectively. For the same sequence, the “solubility change mitosis (log2)” value in data set [3] was -0.0891. Moreover, the thermal stability score in data set [4] (setting [5]) is 2.41; in data set [4] (cell cycle stage: mitosis), 2.1.

As for “MSDHGDVSLPPEDRVRALSQLGSAVEVNEDIPPRRYFRSGVEIIRMASIYSEEGNIEHAFILYNKYITLFIEKLPKHRDYKSAVIPEKKDTVKKLKEIAFPKAEELKAELLKRYTKEYTEYNEEKKKEAEELARNMAIQQELEKEKQRVAQQKQQQLEQEQFHAFEEMIRNQELEKERLKIVQEFGKVDPGLGGPLVPDLEKPSLDVFPTLTVSSIQPSDCHTTVRPAKPPVVDRSLKPGALSNSESIPTIDGLRHVVVPGRLCPQFLQLASANTARGVETCGILCGKLMRNEFTITHVLIPKQSAGSDYCNTENEEELFLIQDQQGLITLGWIHTHPTQTAFLSSVDLHTHCSYQMMLPESVAIVCSPKFQETGFFKLTDHGLEEISSCRQKGFHPHSKDPPLFCSCSHVTVVDRAVTITDLR [STAMBP]”, the “solubility in G1/S (log2)” value in data set [1] stood at 0.276. Further, the melting temperature came to 48.6 °C in data set [2] (cell cycle stage: G1/S) and 49.7 °C in data set [2] (cell cycle stage: mitosis). For the same sequence, the “solubility change mitosis (log2)” value in data set [3] is -0.118. For the same sequence, the thermal stability score in data set [4] (setting [5]) came out at 0.214; in data set [4] (cell cycle stage: mitosis), 0.921.
